This is an account of results in US20240398942A1, “USE OF ANTI-CD40 ANTIBODY” (CHIA TAI TIANQING PHARMACEUTICAL GROUP CO., LTD., priority 2021, published 2024).

In one assay the target is T1, Human CD40-his (Homo sapiens, UniProt P25942).
T1 construct: His; purchased Acro biosystems CD0-H5228
In words: Octet kinetics of humanized C1H1 antibodies. The conditions noted are these: Table 3, Octet; for Ka: humanized antibodies in cell supernatant, chimeric and benchmark 5 μg/mL. In kind it is binding. The protocol: After six days of culture in a shake flask, the cell supernatant containing the humanized antibodies huC1H1-V1 to huC1H1-V4 was harvested and the binding affinity of the antibodies to human CD40 was determined on an Octet system (Fortebio, Octet RED 96) according to the following procedures. Briefly, an anti-human IgG Fc capture (AHC) biosensor (from ForteBio) was pre-soaked in a 10 mM glycine solution (pH 1.5) for 3 s, and then soaked in a running buffer (PBST containing 0.5% w/v of BSA) for 3 s. The pre-soaking and soaking procedures were repeated 3 times. Then, the sensor was soaked in the cell supernatant containing the humanized anti-CD40 antibody, chimeric antibody C1H1 dissolved in HBS-EP^+ buffer at a concentration of 5 μg/mL, or the benchmark dissolved in HBS-EP^+ buffer at a concentration of 5 μg/mL for 120 s, and then soaked in the running buffer for 5 min. The new baseline was run in the running buffer for 180 s. The sensor was then soaked for 120 s in human CD40-his protein (Acro biosystems, Cat. No. CD0-H5228) 2-fold serially diluted from 40 nM in the running buffer and for 10 min in the running buffer […]. Finally, the sensor was pre-soaked in a 10 mM glycine solution (pH 1.5) for 3 s, and then soaked in the running buffer for 3 s. The pre-soaking and soaking procedures were repeated 3 times. The association and dissociation curves were fitted to a 1:1 Langmuir binding model using ForteBio Data Analysis 8.1.

The next assay addresses binding of CD40 to CD40L (Homo sapiens, UniProt P25942). The assay is described as follows: Ligand blocking competitive ELISA. The conditions noted are these: in words, FIG. 5. The protocol:
The ability of the anti-CD40 antibody to block the binding of CD40 to CD40L was determined by competitive ELISA. Briefly, a human CD40-Fc protein (amino acid residues 21-193 of SEQ ID NO: 30 linked to the N terminus of amino acid residues 99-330 of SEQ ID NO: 28) dissolved in the immobilization buffer (carbonate/bicarbonate buffer) at a concentration of 2 μg/mL was immobilized on a 96-well plate at 100 μL/well and incubated overnight at 4° C. The next day, the plate was washed once with a washing buffer (PBS+0.05% v/v of Tween-20, PBST) before a PBST containing 5% w/v of skim milk was added. The plate was then incubated at 37° C. for 2 h for blocking. The plate was then washed 4 times with the washing buffer.
The anti-CD40 antibody of the present application or the benchmark was serially 5-fold diluted from 200 nM in a PBST containing 2.5% w/v of skim milk, and the serially diluted anti-CD40 antibody or benchmark was added at 100 μL/well to a plate coated with CD40-Fc protein and incubated at 37° C. for 40 min. […] The absorbance of each well was read on a microplate reader using the dual wavelength mode (TMB detection wavelength: 450 nm, reference wavelength: 630 nm). […] Data were analyzed using Graphpad Prism software, and IC50 values were obtained.

Assay [1] addresses binding of the benchmark (BM2) to human CD40 (Homo sapiens, UniProt P25942). The assay is described as follows: Benchmark blocking competitive ELISA. The conditions noted are these: in words, FIG. 6. The protocol:
The ability of the anti-CD40 antibody of the present application to block the binding of the benchmark to human CD40 was determined by competitive ELISA. Briefly, BM2 antibody was immobilized on a 96-well micro plates at 1 μg/mL in PBS, 100 µL/well, and incubated overnight at 4° C. The next day, the plate was washed once with a washing buffer before a blocking buffer (PBST containing 5% w/v of skim milk) was added. The plate was then incubated at 37° C. for 2 h for blocking. During the blocking of the 96-well plate, the anti-CD40 antibody of the present application or the benchmark was serially 5-fold diluted from 66.7 nM with a biotinylated human CD40-Fc protein (amino acid residues 21-193 of SEQ ID NO: 30 linked to the N terminus of amino acid residues 99-330 of SEQ ID NO: 28, dissolved in PBST containing 2.5% w/v of skim milk at a concentration of 0.23 nM) and then incubated at room temperature for 40 min. After the plate was washed 4 times, the antibody/biotinylated human CD40-Fc mixture was added at 100 μL/well to the plate coated with BM2. The plate was incubated at 37° C. for 40 min and again washed 4 times with the washing buffer. […] The absorbance was read on a microplate reader using the dual wavelength mode (TMB detection wavelength: 450 nm, reference wavelength: 630 nm). […] Data were analyzed using Graphpad Prism software, and IC50 values were obtained.

Like-named read-outs stand apart in the source and are kept apart here.

T1 sequence (P25942 21-277): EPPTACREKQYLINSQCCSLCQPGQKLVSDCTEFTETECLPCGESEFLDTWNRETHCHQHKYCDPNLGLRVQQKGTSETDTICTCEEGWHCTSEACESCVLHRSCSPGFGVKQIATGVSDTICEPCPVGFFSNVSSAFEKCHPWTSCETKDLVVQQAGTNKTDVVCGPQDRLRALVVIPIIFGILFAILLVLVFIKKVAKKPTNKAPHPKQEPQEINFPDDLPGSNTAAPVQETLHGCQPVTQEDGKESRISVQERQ
Chain of binding of CD40 to CD40L (P25942 21-193): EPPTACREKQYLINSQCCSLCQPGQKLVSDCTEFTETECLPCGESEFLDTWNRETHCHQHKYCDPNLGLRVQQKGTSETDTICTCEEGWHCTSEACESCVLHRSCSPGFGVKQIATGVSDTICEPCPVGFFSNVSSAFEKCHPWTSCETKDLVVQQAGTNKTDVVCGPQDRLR
Chain of binding of the benchmark (BM2) to human CD40 (P25942 21-193): as above

B1: huC1H1-V1: humanized C1H1 anti-CD40 antibody, VH SEQ ID NO: 20 X1=A, VL SEQ ID NO: 24 X1=K X2=F, human IgG2/κ (antibody, V domains shown)
VH: EVQLVESGGGLVKPGGSLRLSCAASGFTFSNYGISWVRQAPGKGLEWVXSISSGGDNTYYPDNVKGRFTISRDNAKNSLYLQMNSLRAEDTAVYYCARAGEKAMDYWGQGTLVTVSS
VL: EIVLTQSPATLSLSPGERATLSCRASQTINNNLHWYQQKPGQAPRLLIXYASQSISGIPARFSGSGSGTDFTLTISSLEPEDFAVYXCQQFSSWPLTFGGGTKVEIK
modifications: not fully specified; human IgG2/kappa constant regions; VH of huC1H1-V1 to huC1H1-V4; VARIANT 49 X can be A or S; VL of huC1H1-V1 to huC1H1-V4; VARIANT 49 X can be K or Y; VARIANT 87 X can be F or Y
Turning to B1, the Kd with Human CD40-his (dissociation rate) was found to be 0.00128 s⁻¹; in the assay with Human CD40-his (read-out: KD), 904 pM. In the assay with Human CD40-his, this molecule yielded a Ka of 1.41e+06 M⁻¹ s⁻¹. Also, the “Blocking of the binding of CD40 to CD40L” value with binding of CD40 to CD40L was “comparable or slightly lower blocking activity relative to BM1 and BM2”. The “Blocking of the binding of human CD40 to BM2” value in assay [1] is given as “able to block the binding of human CD40 to BM2”.

B2: huC1H1-V2: humanized C1H1 anti-CD40 antibody, VH SEQ ID NO: 20 X1=S, VL SEQ ID NO: 24 X1=K X2=F, human IgG2/κ (antibody, V domains shown)
VH: B1 VH
VL: B1 VL
modifications: not fully specified; variable positions X1=S; VL X1=K X2=F; IgG2/kappa constant; VH of huC1H1-V1 to huC1H1-V4; VARIANT 49 X can be A or S; VL of huC1H1-V1 to huC1H1-V4; VARIANT 49 X can be K or Y; VARIANT 87 X can be F or Y
For the molecule B2, the values for the Kd with Human CD40-his (dissociation rate) and in the assay with Human CD40-his (read-out: KD) were 0.000981 s⁻¹ and 596 pM, respectively. In the assay with Human CD40-his, this molecule gave a Ka of 1.65e+06 M⁻¹ s⁻¹. Besides, in the assay with binding of CD40 to CD40L, the “Blocking of the binding of CD40 to CD40L” value was “comparable or slightly lower blocking activity relative to BM1 and BM2”. Also, the “Blocking of the binding of human CD40 to BM2” value in assay [1] is listed as “able to block the binding of human CD40 to BM2”.
